Where two headings read alike, the source gives them in different places.
Assays:
[1] = test system: pancreatic peritoneal metastatic tumors; assay: combination anti-DEspR mAb and gemcitabine in rats with pancreatic peritoneal metastatic tumors; assay type: in vivo; conditions: per rat
Procedure: FIG. 36 depicts representative images of tumor treated rats with combination anti-DEspR mAb and gemcitabine vs gemcitabine alone, and mock-treated saline controls. GEM tx: gemcitabine treatment (100 mg/kg/dose iv×2). Hu-6g8 or ABTM-468: humanized anti-DEspR mAb treatment 1 mg/kg/dose iv×1/week×2. Combo-tx: combination therapy. Saline mock Tx: mock.
The observations of anti-DEspR/gemcitabine synergy supports the potential of anti-DEspR mAb therapy to be a compelling partner for combination with checkpoint inhibitors. […] The paradigm of unique combinatorial synergy was further tested in vivo. […] Moreover, there was no ascites in ComboTx-rats. Gut distention from gut-dysfunction is also evident in saline mock-treated (Tx) control. (FIG. 36).
Importantly, metastasis to the liver and retroperitoneal space, and ascites were all prevented/inhibited by ComboTx.

[2] = test system: LPS-activated neutrophils; assay: ex vivo survival of LPS-activated neutrophils; assay type: cell-based, rat; conditions: vs control non-treated activated neutrophils, P<0.0001; listed as 6g8
Description: FIGS. 2A-2B depict DEspR expression on rat activated neutrophils and anti-DEspR inhibition of activated neutrophil survival. FIG. 2A) FACS analysis of CD11b activated neutrophils that are DEspR+(bold oval), and DEspR[−] (bold circle). Quiescent neutrophils are DEspR[−] and CD11B[−] in Quadrant Q4. FIG. 2B depicts inhibition of the extended survival of activated neutrophils by two different anti-DEspR mAbs targeting two different epitopes on DEspR.
DEspR is expressed on activated human neutrophils (FIG. 1A) and in neutrophils undergoing NETosis (FIG. 1C-D), in contrast to isotype control (FIG. 1B). Anti-DEspR mAb detects DEspR expression on rat LPS-activated neutrophils (FIG. 2A). […] Majority of CD11b activated neutrophils are DEspR+(Red bold circle) in contrast to CD11b+ but DEspR(−) (yellow circle) activated neutrophils (FIG. 2A).
Briefly, this anti-DEspR approach is supported by experimental data as outlined below: • 1. Validation of DEspR as target. DEspR is expressed on activated human neutrophils (FIG. 1A,1C,1D). Anti-DEspR immunostaining specificity is shown by no signal in isotype control neutrophils (FIG. 1B). Most human neutrophils undergoing NETosis are DEspR+ (FIG. 1C-1D). NETs (neutrophil extracellular traps) are associated with organ microthrombi in MOF and directly induce endothelial and epithelial cell death,^56 all of which are pathogenic events in ARDS. • 2. […]

activated neutrophils = assay: dose-response survival assay of activated neutrophils (Trypan blue dye exclusion); assay type: cell-based; conditions: for IC50: live cells counted by Trypan blue dye exclusion, read-out: IC50, inhibition of activated neutrophil survival
Description: FIG. 6 depicts a graph comparison of functional activity of anti-DEspR fully humanized 6g8 mAb, 6g8-humab, and prototype murine anti-DEspR 6g8 mAb, 6g8-mumab.
(§1) FIGS. 17A-17C depict anti-DEspR-mab (hu6g8 mab). FIG. 17A depicts a diagram of DEspR, murine precursor mabs and humanized IgG and IgG4 mabs. Hu6g8 is notated as 6g8g7-hu-IgG4 raised against epitope 2, spanning the putative binding domain.
Described herein are the advantages of anti-DEspR mAb targeted AECs. DEspR, the dual endothelin1/signal peptide receptor,^9 is a validated target on human activated neutrophils and NETs. Hu6g8 binds human activated neutrophils (FIG. 18A) and NETs (FIG. 18B), as confirmed by Western Blot analysis of DEspR protein in human kidney (K), and activated neutrophil samples, act-Ns (FIG. 18C). Humanized anti-DEspR-mab (hu6g8 mab) is an ideal targeting moiety. Hu6g8 is the multi-species Human/NHPrimate/Rat reactive humanized-deimmunized anti-DEspR-mab with a hinge-stabilized IgG4S228P/kappa Fc region (FIG. 17A) to avoid (ADCC-antibody dependent cell-mediated cytotoxicity, CDC-complement dependent cytotoxicity), and to eliminate loss of targeting upon Fab arm exchange typical of native IgG4 isotype. […] Through recombinant DNA technology, the antibody design incorporates: a) avoidance of T-cell epitopes for low immunogenicity; b) optimization of heavy and light chain interactions for stability of variable domains; and, c) exclusion of destabilizing post-translational modification sites [e.g., deamidation, oxidation]. The targeting of DEspR^+ NETs, but sparing of DEspR(−) quiescent neutrophils via the anti-DEspR mAb is also novel. […] The use of human neutrophil-elastase cleavable linker is advantageous as this connector-peptide can be added by recombinant technology and HNE is enriched on NETs and actually a reason for the injurious properties of NETs. HNE is desirable for local therapeutic delivery [Owen C A, Campbell E J. J Leukocyte Biol 1999, 65 (2) 137-150], has specificity for small uncharged amino acids particularly alanine (A) and valine (V) [Meers P. Adv Drug Delivery Rev. 2001. 53 (3) 265-272]. […] The advantages of all three in an AEC is novel and robust as the targeted delivery and release of DNAse 1 on NETs can attain in vivo efficacy of what has been shown in vitro, the induction of macrophage uptake-and-clearance of NETs upon DNAse 1 digest of NETs DNA. In summary, targeting the intravascular NETs sites. The humanized anti-DEspR-mab with a hinge-stabilized IgG4/kappa Fc region to avoid Fab arm exchange in vivo and ensuing loss of targeting was selected. Additionally, this avoids immune effector functions of IgG1 mAbs (ADCC, CDC), which would worsen endothelial injury. […]

[3] = test system: LPS-induced hemorrhagic encephalopathy in stroke prone rats; assay: LPS-induced hemorrhagic encephalopathy / multi-organ failure rat model; assay type: in vivo
Description: FIG. 3A) control rat brain after PBS-buffer perfusion to eliminate intravascular blood.
FIG. 4 depicts a survival curve analysis of anti-DEspR treated rats compared with non-treated rats in a rat model of LPS-induced multi-organ failure manifesting predominantly as hemorrhagic encephalopathy (phenotype corroborated in FIG. 3A-3F).
Neutrophil-mediated tissue injury has been implicated in blood brain barrier disruption or injury.
The murine precursor anti-DEspR antibody, 6g8-mumab, was studied in a rat model of LPS-induced hemorrhagic encephalopathy as a paradigm of multi-organ failure (MOF) in ARDS and sepsis (FIG. 3A-3F).
It was also determined whether anti-DEspR can increase survival of rats in a LPS-induced hemorrhagic encephalopathy MOF rat model.

[4] = target: T1, DEspR on intact human cells (Homo sapiens, UniProt B0L3A2); assay: hu6g8 binding to DEspR on intact human cells; conditions: done in triplicate
T1 construct: endogenous in cells; host or cells: intact human cells / 'DEspR+ human cells'
T1 sequence (B0L3A2 1-85): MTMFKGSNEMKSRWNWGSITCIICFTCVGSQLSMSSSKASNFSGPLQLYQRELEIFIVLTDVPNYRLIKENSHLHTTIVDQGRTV
Description: as §1
Described herein is the development, characterization, and validation of a fully humanized anti-DEspR mAb with a S228P hinge-stabilized IgG4/kappa FC region, designated herein as hu-6g8 or […]. The hu-6g8 was designed for high binding affinity to DEspR+ human cells and inhibition of activated neutrophil survival. hu-6g8 is reactive in all species, having identical epitopes in human, primates and rodents, which facilitates preclinical and clinical studies using the therapeutic lead. […] (FIG. 6). Through recombinant DNA technology, hu-6g8 was designed with optimal biophysical properties via: a) avoidance of T-cell epitopes for low immunogenicity—‘deimmunized’, b) optimization of heavy and light chain interactions for stability of variable domains, and c) exclusion of destabilizing post-translational modification sites [deamidation, oxidation, acid-lability, inappropriate N-glycosylation, isomerization and pyroglutamate formation].
Described herein are the advantages of anti-DEspR mAb targeted AECs. DEspR, the dual endothelin1/signal peptide receptor,^9 is a validated target on human activated neutrophils and NETs. […]

Q: What does the source list for `Nc1ccn([C@@H]2O[C@H](CO)[C@@H](O)C2(F)F)c(=O)n1` [GEM, gemcitabine]?
A: Ascites volume [1]: 1.5 mls; Tumor weight (g) Greater Omentum [1]: 1.6351 g; Ascites ([1]; GEM 100 mg/kg/dose iv×2, hu-6g8 1 mg/kg/dose iv×1/week×2): Bloody

B1: 6g8-mumab: murine precursor anti-DEspR antibody, pan-species reactive anti-Human/Rat/Monkey DEspR mAb (antibody, V domains shown)
VH: GSEVQLQESGGGLVQPGGSLKLSCAASGFDFSRYWMSWVRQAPGKGLEWIGEINPDSSTINYTPSLKDKFIISRDTAKKTLYLQMSKVRSEDTALYYCARHGRGMDYWSQGTSVTVSSAKTTPPSVYGGGGS
VL: GGGGSDIVLTQTNQIMSASVGDRVSVTCKASQNVDSNVAWYQQKPGHSPKALIYSASYRYSRVPDRITGSGSGTDFTLTITNVQSKDLADYFCQQYHSYPLLAFGAGTKLELKRADAAPTVSLE
Q: Which “survival of activated neutrophils ex vivo” value [2] does the source give for B1 here?
A: Its value is “decreased their survival”.

Q: What about the IC50 (activated neutrophils; listed as mu-6g8) of the same molecule?
A: Its IC50 is over 198 nM.

Q: What about the IC50 (activated neutrophils) of the same molecule?
A: The IC50 was over 200 nM.

Q: And the “IC50, inhibition of activated neutrophil survival” value (activated neutrophils; maximum dose used in the dose-response survival assay)?
A: Its value is over 30 µg/mL.

Q: What about the “progression to hemorrhagic encephalopathy” value ([3]; single dose 1 mg/kg/dose iv after LPS) of the same molecule?
A: Its value is “attenuated the progression to life-threatening hemorrhagic encephalopathy”.

Q: What about the “murine IgG levels in brain (ELISA of brain membrane proteins)” value ([3]; treated rat brains, target engagement) of the same molecule?
A: The value was “greater brain levels than anti-DEspR 10a3”.

Q: What about the “neutrophil myeloperoxidase (MPO) levels in the brain (ELISA)” value ([3]; vs non-treated LPS brains) of the same molecule?
A: The value was “decreased myeloperoxidase levels”.

Q: What about the “rat albumin levels in the brain (ELISA), brain edema” value ([3]; vs non-treated LPS brains) of the same molecule?
A: The value was “decreased albumin levels”.

Q: What about the EC50 [4] of the same molecule?
A: The EC50 was 178 nM.
